Assay results taken from patent US20210196796A1 (SYNTHEKINE, published 2021).

T1: orthogonal hCD122 receptor (hoRb), hCD122 with H133D and Y134F (human, UniProt P14784 27-550)
T1 sequence: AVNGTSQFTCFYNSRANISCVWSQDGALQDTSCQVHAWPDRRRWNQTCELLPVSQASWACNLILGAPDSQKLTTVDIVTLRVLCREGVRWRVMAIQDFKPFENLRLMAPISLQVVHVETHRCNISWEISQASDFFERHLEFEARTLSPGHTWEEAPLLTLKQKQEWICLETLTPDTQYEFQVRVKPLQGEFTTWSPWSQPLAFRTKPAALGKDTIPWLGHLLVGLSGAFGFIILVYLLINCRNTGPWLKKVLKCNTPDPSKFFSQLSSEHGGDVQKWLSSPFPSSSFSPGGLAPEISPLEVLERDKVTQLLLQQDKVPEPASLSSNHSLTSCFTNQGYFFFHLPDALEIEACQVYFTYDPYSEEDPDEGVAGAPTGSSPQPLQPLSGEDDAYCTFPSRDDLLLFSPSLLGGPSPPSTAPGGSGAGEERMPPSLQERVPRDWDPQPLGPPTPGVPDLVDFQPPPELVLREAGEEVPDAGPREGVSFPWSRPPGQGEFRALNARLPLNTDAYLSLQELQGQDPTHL


Tests used:
[1] = molecular target: T1, orthogonal hCD122 receptor (hoRb), …; assay: cell-based or functional assay
[2] = molecular target: T1, orthogonal hCD122 receptor (hoRb), …; assay: cell-based or functional assay; remark: listed apart in the source
Throughout, for Relative Proliferation Fold Change 3F8 1:10: reference of the scale not given here.
Throughout, for Relative Proliferation Fold Change 3F8 1:2: reference of the scale not given here.
Throughout, for Relative Proliferation Fold Change 3F8 1:50: reference of the scale not given here.
Throughout, for Relative Proliferation Fold Change NKL 1:10: reference of the scale not given here.
Throughout, for Relative Proliferation Fold Change NKL 1:2: reference of the scale not given here.
Throughout, for Relative Proliferation Fold Change NKL 1:50: reference of the scale not given here.

| NKL Ortho Proliferation Signal 1:2 [1] | NKL Ortho Proliferation Signal 1:10 [1] | NKL Ortho Proliferation Signal 1:50 [1] | Relative Proliferation Fold Change NKL 1:2 [1] | Relative Proliferation Fold Change NKL 1:10 [1] | Relative Proliferation Fold Change NKL 1:50 [1] | 3F8 Ortho Proliferation Signal 1:2 [2] | 3F8 Ortho Proliferation Signal 1:10 [2] | 3F8 Ortho Proliferation Signal 1:50 [2] | Relative Proliferation Fold Change 3F8 1:2 [2] | Relative Proliferation Fold Change 3F8 1:10 [2] | Relative Proliferation Fold Change 3F8 1:50 [2] | Binder |
| --- | --- | --- | --- | --- | --- | --- | --- | --- | --- | --- | --- | --- |
| 33400 | 27700 | 13800 | 2.96 fold | 1.81 fold | 0.96 fold | 32400 cts/min | 21900 cts/min | 8150 cts/min | 171 fold | 22.6 fold | 11.7 fold | ΔA1, SQVLKA (ligand) PTSSSTKKTQLQLSQLLVLLKAILNGINNYKNPKLTRMLTFKFYMPKKATELKHLQCLEEELKPLEEVLNLAQSKNFHLRPRDLISNINVIVLELKGSETTFMCEYADETATIVEFLNRWITFCQSIISTLT |
| 55400 | 51900 | 25300 | 3.65 fold | 3.32 fold | 1.76 fold | 40800 cts/min | 29200 cts/min | 10700 cts/min | 49.1 fold | 21.7 fold | 15.3 fold | ΔT7, SQVLKA (ligand) APTSSSKKTQLQLSQLLVLLKAILNGINNYKNPKLTRMLTFKFYMPKKATELKHLQCLEEELKPLEEVLNLAQSKNFHLRPRDLISNINVIVLELKGSETTFMCEYADETATIVEFLNRWITFCQSIISTLT |
| 64000 | 61900 | 27800 | 4.41 fold | 3.8 fold | 1.77 fold | 40100 cts/min | 31000 cts/min | 12400 cts/min | 34.2 fold | 29.4 fold | 10.5 fold | ΔP2, SQVLKA (ligand) ATSSSTKKTQLQLSQLLVLLKAILNGINNYKNPKLTRMLTFKFYMPKKATELKHLQCLEEELKPLEEVLNLAQSKNFHLRPRDLISNINVIVLELKGSETTFMCEYADETATIVEFLNRWITFCQSIISTLT |
| 21100 | 18200 | 9480 | 1.78 fold | 1.19 fold | 0.67 fold | 33400 cts/min | 31600 cts/min | 12600 cts/min | 32.9 fold | 28.2 fold | 13.1 fold | SQVLEA (ligand) APTSSSTKKTQLQLSQLLVLLEAILNGINNYKNPKLTRMLTFKFYMPKKATELKHLQCLEEELKPLEEVLNLAQSKNFHLRPRDLISNINVIVLELKGSETTFMCEYADETATIVEFLNRWITFCQSIISTLT |
| 16400 | 16100 | 8570 | 1.5 fold | 1.06 fold | 0.59 fold | 19700 cts/min | 9730 cts/min | 3150 cts/min | 59.8 fold | 13 fold | 4.68 fold | SQVLLA (ligand) APTSSSTKKTQLQLSQLLVLLLAILNGINNYKNPKLTRMLTFKFYMPKKATELKHLQCLEEELKPLEEVLNLAQSKNFHLRPRDLISNINVIVLELKGSETTFMCEYADETATIVEFLNRWITFCQSIISTLT |
| 13500 | 11700 | 8730 | 1.1 fold | 0.83 fold | 0.6 fold | 18000 cts/min | 9170 cts/min | 2300 cts/min | 74.5 fold | 15.6 fold | 5.06 fold | SQVLGA (ligand) APTSSSTKKTQLQLSQLLVLLGAILNGINNYKNPKLTRMLTFKFYMPKKATELKHLQCLEEELKPLEEVLNLAQSKNFHLRPRDLISNINVIVLELKGSETTFMCEYADETATIVEFLNRWITFCQSIISTLT |
| – | – | – | 1.23 fold | – | – | – | – | – | – | – | – | SQVLFA (Ref# 073) (ligand) APTSSSTKKTQLQLSQLLVLLFAILNGINNYKNPKLTRMLTFKFYMPKKATELKHLQCLEEELKPLEEVLNLAQSKNFHLRPRDLISNINVIVLELKGSETTFMCEYADETATIVEFLNRWITFCQSIISTLT |
| 10800 | 8600 | 6590 | 0.83 fold | 0.62 fold | 0.51 fold | 8530 cts/min | 5590 cts/min | 1850 cts/min | 20.2 fold | 9.6 fold | 2.1 fold | SQVLVA (ligand) APTSSSTKKTQLQLSQLLVLLVAILNGINNYKNPKLTRMLTFKFYMPKKATELKHLQCLEEELKPLEEVLNLAQSKNFHLRPRDLISNINVIVLELKGSETTFMCEYADETATIVEFLNRWITFCQSIISTLT |
| 20500 | 18600 | 11000 | 1.4 fold | 1.07 fold | 0.65 fold | 20800 cts/min | 11100 cts/min | 3800 cts/min | 63.3 fold | 14.5 fold | 5.92 fold | SQVLMA (ligand) APTSSSTKKTQLQLSQLLVLLMAILNGINNYKNPKLTRMLTFKFYMPKKATELKHLQCLEEELKPLEEVLNLAQSKNFHLRPRDLISNINVIVLELKGSETTFMCEYADETATIVEFLNRWITFCQSIISTLT |
| 14000 | 11100 | 8870 | 1.14 fold | 0.66 fold | 0.54 fold | 7840 cts/min | 4470 cts/min | 714 cts/min | 14.6 fold | 3.35 fold | 0.92 fold | SQVLWA (ligand) APTSSSTKKTQLQLSQLLVLLWAILNGINNYKNPKLTRMLTFKFYMPKKATELKHLQCLEEELKPLEEVLNLAQSKNFHLRPRDLISNINVIVLELKGSETTFMCEYADETATIVEFLNRWITFCQSIISTLT |
| 14600 | 11800 | 9400 | 1.05 fold | 0.72 fold | 0.62 fold | 15900 cts/min | 7290 cts/min | 2940 cts/min | 69.2 fold | 10.1 fold | 4.29 fold | SQVLAA (ligand) APTSSSTKKTQLQLSQLLVLLAAILNGINNYKNPKLTRMLTFKFYMPKKATELKHLQCLEEELKPLEEVLNLAQSKNFHLRPRDLISNINVIVLELKGSETTFMCEYADETATIVEFLNRWITFCQSIISTLT |
| – | – | – | 1.23 fold | – | – | – | – | – | – | – | – | SQVLFA (Ref# 079) (ligand) APTSSSTKKTQLQLSQLLVLLFAILNGINNYKNPKLTRMLTFKFYMPKKATELKHLQCLEEELKPLEEVLNLAQSKNFHLRPRDLISNINVIVLELKGSETTFMCEYADETATIVEFLNRWITFCQSIISTLT |
| 16000 | 13000 | 7840 | 2.1 fold | 1.25 fold | 0.77 fold | 22000 cts/min | 14500 cts/min | 4060 cts/min | 117 fold | 23.9 fold | 6 fold | SQVLSA (ligand) APTSSSTKKTQLQLSQLLVLLSAILNGINNYKNPKLTRMLTFKFYMPKKATELKHLQCLEEELKPLEEVLNLAQSKNFHLRPRDLISNINVIVLELKGSETTFMCEYADETATIVEFLNRWITFCQSIISTLT |
